Measurements as given in patent US20050059803A1 (ARIAD GENE THERAPEUTICS, published 2005).

Biological target: LexA-FKBP12 fusion protein (human FKBP12, bait plasmid pIC504) (human, UniProt P62942 1-104)
Experiment: cell-based or functional assay

Sequence of LexA-FKBP12 fusion protein (human FKBP12, bait plasmid pIC504) (P62942 other isoform, or with tags, fused parts or gaps limits assumed): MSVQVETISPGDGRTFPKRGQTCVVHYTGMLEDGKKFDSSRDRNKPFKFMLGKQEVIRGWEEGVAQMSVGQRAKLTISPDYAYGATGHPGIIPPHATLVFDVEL

B1: human RAPT1 rapamycin-binding domain fused to the VP16 activation domain (other)
chain: VSEELIRVAILWHEMWHEGLEEASRLYFGERNVKGMFEVLEPLHAMMERGPQTLKETSFNQAYGRDLMEAQEWCRKYMKSGNVKDLTQAWDLYYHVFRRISKQLPQLTSLELQYVSPKLLMCRDLELAVPGTYDPNQPIIRIQSIAPSLQVITSKQRPRKLTLMGSNGHEFVF
β-galactosidase activity (lacZ reporter, chemiluminescent substrate): ~1000 fold
